Reference: US6423827 (UNIVERSITY OF MEDICINE AND DENTISTRY OF NEW JERSEY, dated 2002)

Molecular target: T1, recombinant rat LAMP (limbic system-associated membrane protein) expressed at the surface of CHO cells (CHOL … (rat, UniProt Q62813 29-315, PI (GPI) linkage to the membrane at the processed C-terminus, at or near Asn315)); N-linked glycosylation (apparent 55 kDa))
T1 construct: The C-terminal limit 315 is only 'at or near'; also called LAMP cDNA transfected cells
T1 sequence: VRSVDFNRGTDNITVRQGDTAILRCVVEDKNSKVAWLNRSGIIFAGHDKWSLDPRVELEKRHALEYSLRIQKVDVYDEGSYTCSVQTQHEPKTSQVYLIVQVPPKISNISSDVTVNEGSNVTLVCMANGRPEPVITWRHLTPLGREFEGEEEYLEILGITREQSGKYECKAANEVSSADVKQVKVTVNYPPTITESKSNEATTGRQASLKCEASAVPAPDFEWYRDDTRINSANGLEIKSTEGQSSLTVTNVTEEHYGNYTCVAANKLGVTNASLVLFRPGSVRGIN
Test: fluorescent beads coated with native LAMP, incubated with CHO cells expressing rat LAMP
Protocol: To test whether CHO_L cells can bind external LAMP, fluorescent synthetic beads of 2 μm diameter, which have reactive sites for covalently linking protein (Covasphere™ beads, Duke Scientific, Palo Alto, Calif.), were coated with native LAMP that had been released from hippocampal membranes with PI-specific phospholipase C. The beads were incubated with the recombinant cells and the extent of binding to the cell surface determined.

binding result: binds
B1: native rat LAMP from hippocampal membranes (receptor)
chain: VRSVDFNRGTDNITVRQGDTAILRCVVEDKNSKVAWLNRSGIIFAGHDKWSLDPRVELEKRHALEYSLRIQKVDVYDEGSYTCSVQTQHEPKTSQVYLIVQVPPKISNISSDVTVNEGSNVTLVCMANGRPEPVITWRHLTPLGREFEGEEEYLEILGITREQSGKYECKAANEVSSADVKQVKVTVNYPPTITESKSNEATTGRQASLKCEASAVPAPDFEWYRDDTRINSANGLEIKSTEGQSSLTVTNVTEEHYGNYTCVAANKLGVTNASLVLFRPGSVRGIN
modifications: N-linked glycosylation (apparent 64-68 kDa)
notes: The C-terminal limit 315 is only 'at or near'; also called native LAMP; external LAMP
